Measurements from patent US8058396B2, “Cystatin C as an antagonist of TGF-β and methods related thereto” (National Jewish Health, priority 2003, dated 2011).

B1: Δ14CystC: human CystC with deletion of positions 80 to 93 (conserved cysteine proteinase inhibitor motif), retrovirally expressed and secreted (protein)
chain: MAGPLRAPLLLLAILAVALAVSPAAGSSPGKPPRLVGGPMDASVEEEGVRRALDFAVGEYNKASNDMYHSRALQVVRARLGRTTCTKTQPNLDNCPFHDQPHLKRKAFCSFQIYAVPWQGTMTLSKSTCQDA
modifications: left off: small tags and cut ends
B2: CystC: full-length human Cystatin C (SEQ ID NO:2), C-terminally Myc- and (His)6-tagged, retrovirally expressed and secreted by the cells (protein, listed as Homo sapiens)
chain: MAGPLRAPLLLLAILAVALAVSPAAGSSPGKPPRLVGGPMDASVEEEGVRRALDFAVGEYNKASNDMYHSRALQVVRARKQIVAGVNYFLDVELGRTTCTKTQPNLDNCPFHDQPHLKRKAFCSFQIYAVPWQGTMTLSKSTCQDA
modifications: C-terminal Myc and His6 tags

Experiments:
[1] = test system: HT1080 fibrosarcoma cells; assay: HT1080 cell invasion through Matrigel matrices; assay type: cell-based, human; conditions: retroviral expression in HT1080 cells; 48 hr; relative to GFP-expressing cells; p<0.05
Experimental: (§1) The effect CystC and D14CystC on the invasion of HT1080 and 3T3-L1 cells was determined as described previously (42). Briefly, upper chambers were coated with 100 μl of diluted Matrigel (1:50 in serum-free media), which was allowed to evaporate to dryness overnight at room temperature. The following morning the Matrigel mixtures were rehydrated and subsequently cultured with control-, CystC-, or D14CystC-expressing HT1080 or 3T3-L1 cells at a density of 100,000 cells/chamber. Cellular invasion was stimulated by addition of 2% serum to the lower chambers. Forty-eight hr later, the cells were washed twice in ice-cold PBS and immediately fixed for 15 min with 95% ethanol. Cells remaining in the upper chambers were removed with a cotton swab, whereas those remaining in the lower chamber were stained with crystal violet. Quantifying invading cells was determined through two independent measures, which yielded identical results: (i) manual counting under a light microscope, and (ii) crystal violet dye extraction by incubation of the membranes in 10% acetic acid, followed by spectrophotometry at 590 nm.
Cathepsin B is a lysosomal cysteine proteinase that functions in intracellular protein catabolism, as well as in bone resorption, hormone activation, and antigen processing (5). During tumorigenesis, cancer cells express a cathepsin B splice variant whose protein product is secreted into the extracellular milieu (5) and localized to the leading edge of invasive tumors (19), thereby promoting cancer cell invasion and metastasis. However, recent evidence has questioned the role of intracellular versus extracellular cathepsin B in promoting cancer cell invasion (20). To distinguish between these two possibilities, human HT1080 fibrosarcoma cells that stably express the murine ecotropic receptor (21) were infected with control (i.e., GFP), CystC, or Δ14CystC retrovirus. Afterward, cells that expressed GFP were isolated by flow cytometry to establish stable polyclonal populations of control-, CystC-, and Δ14CystC-expressing HT1080 cells (data not shown). The inventor chose to study HT1080 cells because they are highly invasive, and because they express large quantities of secreted cathepsin B and comparably little CystC (22). Thus, if extracellular cathepsin B mediates HT1080 cell invasion, it was hypothesized that overexpression of secreted CystC would attenuate their invasion through synthetic basement membranes.
Briefly, GFP-, CystC-, or Δ14CystC-expressing HT0180 cells were allowed to invade through Matrigel-coated membranes for 48 hr. Data shown in FIG. 1A are the mean (±SE) of three (Δ14CystC) and nine (GFP and CystC) independent experiments presented as the percent invasion relative to GFP-expressing HT1080 cells (***, p<0.05; Student's T-Test).

[2] = test system: 3T3-L1 fibroblasts; assay: 3T3-L1 cell invasion through Matrigel matrices; assay type: cell-based, murine; conditions: retroviral expression in 3T3-L1 cells, 48 hr; for serum-stimulated (tonic) 3T3-L1 cell invasion: relative to GFP-expressing cells; for TGF-β1-stimulated 3T3-L1 cell invasion: TGF-β1 5 ng/ml, p<0.05
Experimental: as §1
In some experiments, the effects of recombinant CystC and D14CystC on 3T3-L1 cell invasion was examined. To do so, 3T3-L1 cells (100,000 cells/chamber) were allowed to invade through Matrigel […], together with or without 5 ng/ml of TGF-β1. All subsequent procedures were performed as described above.
GFP-, CystC-, or Δ14CystC-expressing 3T3-L1 cells were allowed to invade through Matrigel-coated filters in the absence or presence of TGF-β1 (5 ng/ml) for 48 hr, and the results are shown in FIG. 2A. […] Data are the mean (±SE) of four independent experiments presented as the percent invasion relative to GFP-expressing 3T3-L1 cells.
Moreover, the inhibitory effects of CystC on 3T3-L1 cell invasion could be recapitulated by addition of recombinant CystC fusion proteins. Control or TGF-β1-stimulated (5 ng/ml) 3T3-L1 cells were allowed to invade through Matrigel-coated filters for 48 hr in the absence or presence of recombinant (10 mg/ml) GST, GST-CystC, or GST-D14CystC as indicated in FIG. 2B. […] Data are the mean (±SE) of three independent experiments presented as the percent invasion relative to untreated 3T3-L1 cells. […] Collectively, these findings indicate that 3T3-L1 cell invasion proceeds through cathepsin B-dependent and TGF-β-dependent pathways.

[3] = test system: NMuMG cells; assay: NMuMG cell invasion through Matrigel matrices; assay type: cell-based, murine; conditions: expression in NMuMG cells, 48 hours, p<0.05; for TGF-β1-enhanced NMuMG cell invasion: TGF-β1 5 ng/ml
Experimental: In another experiment, NMuMG cells were infected with ecotropic retrovirus encoding either GFP (i.e., control), CystC, or Δ14CystC, and subsequently were isolated by FACS-sorting for GFP expression to yield stable polyclonal populations of control, CystC, and Δ14CystC-expressing cells. The expression and secretion of recombinant CystC proteins by infected NMuMG and NRK cells was monitored by immunoblotting conditioned-media with anti-CystC antibodies. The same cells were incubated in the absence or presence of TGF-β1 (5 ng/ml) for 8 hours, whereupon alterations in actin cytoskeletal architecture was visualized by direct rhodamine-phalloidin immunofluorescence. Next, the control, CystC-, and Δ14CystC-expressing NMuMG cells were incubated in the absence or presence of TGF-β1 (5 ng/ml) for 36 hours, whereupon E-cadherin expression was monitored by immunoblotting with anti-E-Cadherin antibodies. Finally, control, CystC-, and Δ14CystC-expressing NMuMG cells were allowed to invade through Matrigel matrices in the absence or presence of TGF-β1 (5 ng/ml) for 48 hours.

[4] = test system: HT1080 cells; assay: DNA synthesis in HT1080 cells; assay type: cell-based, human; conditions: overexpression in HT1080 cells; data not shown
[5] = test system: TGF-β signaling; assay: p3TP-luciferase reporter gene assay in HT1080 cells; assay type: cell-based, human; conditions: expression in HT1080 cells; TGF-β1 0-5 ng/ml
Experimental: Analysis of luciferase activity driven by the synthetic p3TP reporter ((26); generously provided by Dr. Joan Massague, Sloan Kettering) was performed as described previously (42). Briefly, control, CystC-, or Δ14CystC-expressing 3T3-L1 or HT1080 cells were cultured onto 24-well plates at a density of 45,000 cells/well and allowed to adhere overnight. The cells were transiently transfected the following morning by overnight exposure to LT1 liposomes (Mirus) containing 300 ng/well p3TP-luciferase and 100 ng/well of pCMV-β-gal. Afterward, the cells were washed twice with PBS and stimulated overnight in serum-free media with increasing concentrations of TGF-β1 as indicated. The following morning, luciferase and β-gal activities contained in detergent-solubilized cell extracts were determined.
The inventor therefore hypothesized that CystC expression might impact TGF-β signaling via a cathepsin B-dependent mechanism. To test this hypothesis, changes in luciferase expression driven by the synthetic p3TP-luciferase reporter gene (26) were measured in control- and CystC-expressing HT1080 cells. Briefly, GFP-, CystC-, or Δ14CystC-expressing HT0180 cells were transiently transfected with p3TP-luciferase and pCMV-β-gal. The transfectants were stimulated with increasing concentrations of TGF-β1 (0-5 ng/ml) as indicated, and subsequently processed to measure luciferase and β-gal activities. […]

Molecule | HT1080 cell invasion through Matrigel matrices [1] | serum-stimulated (tonic) 3T3-L1 cell invasion [2] | TGF-β1-stimulated 3T3-L1 cell invasion [2] | TGF-β1-enhanced NMuMG cell invasion [3] | synthesis of DNA in HT1080 cells [4] | TGF-β-stimulated luciferase activity driven by the p3TP promoter [5] | tonic NMuMG cell invasion [3]
B1 | failed to affect | unaffected | significantly inhibited | inhibited significantly | failed to effect | equally effective as CystC | –
B2 | significantly inhibited | inhibited significantly | significantly inhibited | inhibited significantly | failed to effect | significantly inhibited | significantly inhibited
